# Measured values reported in PMC546145.
# Where two headings read alike, the source gives them in different places.
# Assays:
# Assay in all cases: competition EMSA
# [1] = biological target: T1, Ku heterodimer, Ku70 subunit;Ku heterodimer, Ku80 subunit (human;human, UniProt P12956;P13010 1-609;1-732, |)
# [2] = biological target: T1, Ku heterodimer, Ku70 subunit;Ku …; remark: listed apart in the source
# [3] = biological target: T1, Ku heterodimer, Ku70 subunit;Ku …; remark: listed apart in the source
# T1 sequence (P12956 whole entry, chain 1 of 2): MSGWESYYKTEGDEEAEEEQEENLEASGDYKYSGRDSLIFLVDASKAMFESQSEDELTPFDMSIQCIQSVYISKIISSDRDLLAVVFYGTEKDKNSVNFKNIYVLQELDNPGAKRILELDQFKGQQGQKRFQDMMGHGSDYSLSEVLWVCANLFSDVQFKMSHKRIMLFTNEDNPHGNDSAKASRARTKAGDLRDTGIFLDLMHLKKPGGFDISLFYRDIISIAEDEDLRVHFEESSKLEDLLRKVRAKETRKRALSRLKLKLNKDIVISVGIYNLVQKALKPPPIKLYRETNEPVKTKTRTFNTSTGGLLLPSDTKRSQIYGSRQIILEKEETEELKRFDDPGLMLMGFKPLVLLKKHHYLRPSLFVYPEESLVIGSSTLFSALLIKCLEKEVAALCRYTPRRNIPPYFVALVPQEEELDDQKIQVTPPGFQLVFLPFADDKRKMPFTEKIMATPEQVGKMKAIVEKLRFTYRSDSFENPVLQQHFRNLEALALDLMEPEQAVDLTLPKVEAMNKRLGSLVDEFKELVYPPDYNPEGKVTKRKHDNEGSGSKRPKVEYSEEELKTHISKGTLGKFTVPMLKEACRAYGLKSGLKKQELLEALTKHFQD
# T1 sequence (P13010 whole entry, chain 2 of 2): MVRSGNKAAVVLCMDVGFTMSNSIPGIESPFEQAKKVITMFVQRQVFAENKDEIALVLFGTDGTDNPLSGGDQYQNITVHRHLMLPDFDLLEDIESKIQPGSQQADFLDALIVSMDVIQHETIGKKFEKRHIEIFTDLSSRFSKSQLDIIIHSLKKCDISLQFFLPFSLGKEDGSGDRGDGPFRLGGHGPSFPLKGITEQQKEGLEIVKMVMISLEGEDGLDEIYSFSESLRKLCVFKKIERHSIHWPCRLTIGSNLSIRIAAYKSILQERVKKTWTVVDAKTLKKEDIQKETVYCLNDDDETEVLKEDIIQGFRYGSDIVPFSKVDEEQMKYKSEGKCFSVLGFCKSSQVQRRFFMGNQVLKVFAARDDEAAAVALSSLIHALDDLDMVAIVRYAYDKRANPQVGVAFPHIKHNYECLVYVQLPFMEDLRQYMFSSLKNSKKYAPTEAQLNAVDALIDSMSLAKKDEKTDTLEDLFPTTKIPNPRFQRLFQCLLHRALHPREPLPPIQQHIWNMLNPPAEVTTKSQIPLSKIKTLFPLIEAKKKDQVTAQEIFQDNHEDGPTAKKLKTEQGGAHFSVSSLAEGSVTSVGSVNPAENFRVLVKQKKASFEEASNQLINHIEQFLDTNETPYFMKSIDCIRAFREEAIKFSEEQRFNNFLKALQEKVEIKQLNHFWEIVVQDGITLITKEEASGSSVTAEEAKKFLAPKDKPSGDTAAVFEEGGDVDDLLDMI
binder,measurement,setting,value
"MP/5B + Pt (dsDNA, cisplatin adduct at central GG of strand 1 (15-16); 5' biotin on strand 2) DNA 1: CCCCTCTCCTTCTTGGCTTCTTCCTTCCCC DNA 2: GGGGAAGGAAGAAGCCAAGAAGGAGAGGGG",binding result,[1],binds
"MP/3B + Pt (dsDNA, cisplatin adduct at central GG of strand 1 (15-16); 3' biotin on strand 2) DNA 1: CCCCTCTCCTTCTTGGCTTCTTCCTTCCCC DNA 2: GGGGAAGGAAGAAGCCAAGAAGGAGAGGGG",binding result,[2],binds
"5P/5B undamaged (dsDNA, 5' biotin on strand 2) DNA 1: CCCCTGGCTTTCTTTTCCTCTTCCTTCCCC DNA 2: GGGGAAGGAAGAGGAAAAGAAAGCCAGGGG",binding result,[3],binds
